Article PMC7927433 (The Journal of Experimental Medicine, 2020)

Target: T1, recombinant XPF-HA (human, UniProt Q92889 1-916)
T1 sequence: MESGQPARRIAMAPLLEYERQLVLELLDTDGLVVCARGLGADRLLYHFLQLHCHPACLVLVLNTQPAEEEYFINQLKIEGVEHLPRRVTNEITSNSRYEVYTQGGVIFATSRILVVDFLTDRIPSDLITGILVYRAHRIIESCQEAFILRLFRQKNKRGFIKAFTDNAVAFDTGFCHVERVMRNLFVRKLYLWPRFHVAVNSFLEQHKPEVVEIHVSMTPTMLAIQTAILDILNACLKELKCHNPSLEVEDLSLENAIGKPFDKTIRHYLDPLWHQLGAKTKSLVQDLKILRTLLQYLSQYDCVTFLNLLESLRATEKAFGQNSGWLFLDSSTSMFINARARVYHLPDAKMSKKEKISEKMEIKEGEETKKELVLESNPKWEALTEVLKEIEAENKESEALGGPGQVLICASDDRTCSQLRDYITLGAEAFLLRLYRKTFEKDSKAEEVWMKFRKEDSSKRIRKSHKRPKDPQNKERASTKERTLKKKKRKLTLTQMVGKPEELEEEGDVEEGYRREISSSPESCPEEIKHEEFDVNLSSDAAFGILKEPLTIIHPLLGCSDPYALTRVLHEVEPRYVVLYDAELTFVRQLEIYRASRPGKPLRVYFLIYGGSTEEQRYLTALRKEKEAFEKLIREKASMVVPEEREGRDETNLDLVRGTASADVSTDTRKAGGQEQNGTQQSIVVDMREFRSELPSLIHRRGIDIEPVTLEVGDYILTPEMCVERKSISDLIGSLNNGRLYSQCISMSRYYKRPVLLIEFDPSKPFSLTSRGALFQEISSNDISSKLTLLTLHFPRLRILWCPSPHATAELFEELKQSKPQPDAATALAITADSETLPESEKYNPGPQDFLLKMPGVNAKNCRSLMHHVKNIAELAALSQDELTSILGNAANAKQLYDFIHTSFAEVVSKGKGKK
Assay: SEC

binding result: binds
B1: recombinant ERCC1^R156W-His (natural protein)
chain: MDPGKDKEGVPQPSGPPARKKFVIPLDEDEVPPGVAKPLFRSTQSLPTVDTSAQAAPQTYAEYAISQPLEGAGATCPTGSEPLAGETPNQALKPGAKSNSIIVSPRQRGNPVLKFVRNVPWEFGDVIPDYVLGQSTCALFLSLRYHNLHPDYIHGWLQSLGKNFALRVLLVQVDVKDPQQALKELAKMCILADCTLILAWSPEEAGRYLETYKAYEQKPADLLMEKLEQDFVSRVTECLTTVKSVNKTDSQTLLTTFGSLEQLIAASREDLALCPGLGPQKARRLFDVLHEPFLKVP
